Measured values published in patent US20170260272A1 (Novartis, published 2017).
Numbering of substitutions follows the chain as printed. Like-named read-outs stand apart in the source and are kept apart here. Each block holds one binder with its values, some of them ahead of it.

Columns and labels:
[1] = target: T1, APP-Avi-soluble human LOX-1(61-273) (human, UniProt P78380 61-273); assay: SET, IgG vs soluble human LOX-1
[2] = target: T1, APP-Avi-soluble human LOX-1(61-273); assay: SET, IgG vs soluble human LOX-1; remark: listed apart in the source
Protocol: (§1) Affinity determination for anti-LOX-1 IgGs using Solution Equilibrium Titration (SET) was basically performed as described in the literature (Friguet et al., 1985 J Immunol Methods 77: 305-319). The assays were performed in a 96-well polypropylene plate (Thermo Scientific, Catalog no. AB-1127) using a constant concentration of LOX-1 antibody mixed with different concentrations of non-biotinylated human or cynomolgus monkey LOX-1 protein and incubated at 22° C. for 14 hours with constant shaking (300 rpm).
(§2) On a pre-blocked MSD plate (Meso Scale Discovery, catalog no. L21SA) biotinylated human or cynomolgus monkey soluble LOX-1 protein was immobilized and washed afterwards. The equilibrium binding reactions were then applied to the MSD plate with immobilized LOX-1 and incubated for 30 min. The unbound material was removed by washing the plate, and the captured antibody was detected by adding Sulfo-tagged goat anti-human IgG (Meso Scale Discovery, catalog no. R3AJ-1). After incubation and washing 1×MSD read buffer T(Meso Scale Discovery, catalog no. R92TC-2) was added and the plate was developed using a Sector Imager 6000 (Meso Scale Discovery). The data were transferred to Excel for analysis and plotted using GraphPad Prism v5. The KD values were determined by fitting the data to the following equation: […]

[3] = target: T2, APP-Avi-soluble cynomolgus monkey LOX-1(61-273) (cynomolgus monkey); assay: SET, IgG vs soluble cynomolgus LOX-1
T2 construct: Non-biotinylated as titrated antigen in SET, biotinylated for capture on the plate; also called cyno sLOX-1; cynomolgus monkey soluble LOX-1
T2 sequence (chain, as listed by the source limits assumed): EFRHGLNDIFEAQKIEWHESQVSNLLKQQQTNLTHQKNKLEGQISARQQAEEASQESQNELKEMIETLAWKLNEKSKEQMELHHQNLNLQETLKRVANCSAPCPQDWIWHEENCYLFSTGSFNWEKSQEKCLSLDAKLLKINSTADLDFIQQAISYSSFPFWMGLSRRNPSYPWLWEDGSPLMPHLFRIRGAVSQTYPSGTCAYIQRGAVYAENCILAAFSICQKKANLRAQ
Protocol: as §1, §2

[4] = target: T1, APP-Avi-soluble human LOX-1(61-273); assay: competition ELISA: oxLDL binding to plate-bound biotinylated human sLOX-1
Protocol: NeutrAvidin 384 well plates were coated with 2.5 μg/ml biotinylated LOX-1 diluted in PBS. After blocking with 25% Block Ace (AbD Serotec, Cat#BUF029) in PBS, purified Fabs or IgGs diluted in PBS/1% BSA were added. Subsequently OxLDL (copper-sulfate oxidized LDL, Kalen Biomedical #770202) or MDA-LDL (Academy Biomedical, #20P-UMD-L102) ligand diluted in PBS/1% BSA were allowed to bind to coated LOX-1. Secondary antibody (HRP conjugated sheep anti ApoB IgG; The Binding Site) diluted 1:1,000 in PBS/1% BSA was added followed by addition of TMB substrate (Thermo Scientific). After 10 minutes 1M H2SO4 was added and absorbance was determined at 450 nm. During early screenings, Fab fragments were also tested in this oxLDL binding assay using Fab-containing crude E. coli lysates.
The ability of LOX-1 antibodies to inhibit oxLDL binding to LOX-1 protein was determined using the method described in Example 4. In addition to “high binding OxLDL” from Kalen Biomedical (catalog number 770212-7), which is generated by copper sulfate mediated oxidation of LDL, two other forms of modified LDL were tested in this assay: malondialdehyde modified LDL (Academy Bio-Medical Co. catalog number 20P-MD-L105) and hypochlorite modified LDL. Hypochlorite modified LDL was prepared according to the following procedure. Human LDL (Kalen Biomedical catalog number 770200-4) was diluted with PBS to a final concentration of 0.25 mg/mL. Sodium hypochlorite (NaOCI, JT Baker catalog number 9416-01) was then added to 0.1 mM final concentration. The solution was incubated at room temperate for 4 hours, then quenched by adding L-methionine to a final concentration of reaction by adding 5 μl of 100 mM Mehionine per 200 μl total volume.

[5] = target: T1, APP-Avi-soluble human LOX-1(61-273); assay: competition ELISA: AGE-BSA binding to plate-bound biotinylated human sLOX-1
Protocol: Purified APP-Avi-soluble human soluble LOX-1(61-273) protein prepared as described in Example 1 was biotinylated as described in Example 5. NeutrAvidin 384 well plates were coated with 5 μg/ml biotinylated LOX-1 diluted in bicarbonate buffer (Thermo Scientific). After blocking with PBS/2% BSA/0.1% Tween20/0.1% TritonX-100, purified Fabs or IgGs diluted in PBS/2% BSA/0.1% Tween20/0.1% TritonX-100 were added. Subsequently AGE-BSA ligand (R&D Systems, #BT4127) diluted in PBS/2% BSA/0.1% Tween20/0.1% TritonX-100 was allowed to bind to coated LOX-1. Streptavidin-HRP (R&D Systems) diluted 1:200 in PBS/2% BSA/0.1% Tween20/0.1% TritonX-100 was added followed by addition of TMB substrate (Thermo Scientific). After 10 minutes 1M H₂SO₄ was added and absorbance was determined at 450 nm. Assay performance was affected by the type of BSA used for blocking and diluent solutions. For optimal assay performance, BSA from Sigma (catalog #A4503) was used.

[6] = target: T3, human LOX-1 (full-length, on cells) (human, UniProt P78380 1-273); assay: cell-based or functional assay
[7] = target: T3, human LOX-1 (full-length, on cells); assay: flow cytometry: DiI-oxLDL binding to human LOX-1 transfected HEK293 cells
Protocol: The huLOX-1/HEK293 cells were resuspended at 1×10⁶ cells/mL and seeded 50 μL per well into a 96-well V-bottom plate (5×10⁴ cells per well). LOX-1 or irrelevant control antibodies in assay medium (DMEM+10% FBS) were then added to the cells. Typical final antibody concentrations ranged from 0.006 μg/mL to 20 μg/mL. The cells were incubated at 37° C. for 1 hour, then washed twice with warm HBSS. Dil-oxLDL (human dil-labeled “High Oxidized” LDL, Kalen Biomedical, catalog number 770262-9; Dil is 1,1′-dioctadecyl-3,3,3′,3′-tetramethylindocarbocyanine perchlorate) in 50 ul assay medium was then added to a final concentration 30 to 100 μg/mL. The cells were then incubated at 37° C. for 2 hours, and then washed twice with FACS buffer (2% FBS in PBS). Cells were then analyzed for intensity of Di-I fluorescence by flow cytometry, as depicted in FIGS. 2A-2B and Table 3.

Kd [1]: 0.0003 nM | Kd [2]: 0.0003 nM | Kd [3]: 0.0007 nM | IC50 [4]: 4 nM | IC50 [5]: 2.1 nM
B1: MOR021460 (antibody, human IgG1, lambda, L234A L235A, V domains shown)
VH: QVQLLESGGGLVQPGGSLRLSCAASGFTFSDYALHWVRQAPGKGLEWVSVISYQGGFIYYADSVKGRFTISRDNSKNTLYLQMNSLRAEDTAVYYCARSPGLTSYHDSWGQGTLVTVSS
VL: DIVLTQPPSVSGAPGQRVTISCSGSSSNIGSNYVSWYQQLPGTAPKLLIHSNSHRPSGVPDRFSGSKSGTSASLAITGLQAEDEADYYCQSWDYESERVVFGGGTKLTVLG
notes: also called MOR21460

Inhibition of ROS generation (IC50, nM) [6]: 4.6 nM | Kd [1]: 0.0003 nM | Kd [3]: 0.0007 nM | IC50 [4]: 11 nM | IC50 [7]: 1 nM
B2: MOR022025 (antibody, human IgG1, lambda, L234A L235A, V domains shown)
VH: B1 VH
VL: B1 VL with D1Q, I2S, N52T
notes: Human IgG1f LALA; also called MOR20225; MOR020225

Kd [1]: 0.00065 nM | Kd [2]: 0.0006 nM | Kd [3]: 0.0005 nM | IC50 [4]: 4.8 nM | IC50 [5]: 2.4 nM
B3: MOR021468 (antibody, human IgG1, lambda, L234A L235A, V domains shown)
VH: B1 VH with Q54A, I58K, Y59F
VL: B1 VL
notes: also called MOR21468

Inhibition of ROS generation (IC50, nM) [6]: 3.5 nM | Kd [1]: 0.0006 nM | Kd [3]: 0.0005 nM | IC50 [4]: 9 nM | IC50 [7]: 0.7 nM
B4: MOR22028 (antibody, human IgG1, lambda, L234A L235A, V domains shown)
VH: B1 VH with Q54A, I58K, Y59F
VL: B1 VL with D1Q, I2S, N52S
notes: Human IgG1f LALA; also called MOR022028; MOR20228

Inhibition of ROS generation (IC50, nM) [6]: 1.9 nM | Kd [1]: 0.003 nM | Kd [3]: 0.004 nM | IC50 [4]: 4 nM | IC50 [7]: 0.8 nM
B5: MOR22031 (antibody, human IgG1, kappa, L234A L235A, V domains shown)
VH: QVQLVQSGAEVKKPGSSVKVSCKASGGTFSDYAISWVRQAPGQGLEWMGGIMPISGAPYYAQKFQGRVTITADESTSTAYMELSSLRSEDTAVYYCARDSSTSYYYYFDYWGQGTLVTVSS
VL: DIQMTQSPSSLSASVGDRVTITCRASQDISSWLAWYQQKPGKAPKLLIYQASNLQSGVPSRFSGSGSGTDFTLTISSLQPEDFATYYCQQIDHTPFTFGQGTKVEIKR
notes: Human IgG1f LALA; also called MOR022031; MOR20231

Kd [1]: 0.006 nM | Kd [2]: 0.005 nM | Kd [3]: 0.005 nM | IC50 [4]: 2.8 nM | IC50 [5]: 1.7 nM
B6: MOR021435 (antibody, human IgG1, kappa, L234A L235A, V domains shown)
VH: B5 VH with M52V, S55V, A57T, P58A, Y59N
VL: B5 VL with S30N, I91M, D92W, H93Q, T94F, F96I
notes: also called MOR21435

Kd [1]: 0.0025 nM | Kd [2]: 0.003 nM | Kd [3]: 0.004 nM | IC50 [4]: 2.9 nM | IC50 [5]: 1.4 nM
B7: MOR021433 (antibody, human IgG1, kappa, L234A L235A, V domains shown)
VH: B5 VH
VL: B5 VL with S30N
notes: also called MOR21433

Inhibition of ROS generation (IC50, nM) [6]: 1.6 nM | Kd [1]: 0.005 nM | Kd [3]: 0.005 nM | IC50 [4]: 10 nM | IC50 [7]: 0.6 nM
B8: MOR22034 (antibody, human IgG1, kappa, L234A L235A, V domains shown)
VH: B5 VH with M52V, S55V, A57T, P58A, Y59N
VL: B5 VL with I91M, D92W, H93Q, T94F, F96I
notes: Human IgG1f LALA; also called MOR022034; MOR20234

Inhibition of ROS generation (IC50, nM) [6]: 2.2 nM | Kd [1]: 0.01 nM | Kd [3]: 0.007 nM | IC50 [4]: 4 nM | IC50 [7]: 0.4 nM
B9: MOR22029 (antibody, human IgG1, lambda, L234A L235A)
heavy: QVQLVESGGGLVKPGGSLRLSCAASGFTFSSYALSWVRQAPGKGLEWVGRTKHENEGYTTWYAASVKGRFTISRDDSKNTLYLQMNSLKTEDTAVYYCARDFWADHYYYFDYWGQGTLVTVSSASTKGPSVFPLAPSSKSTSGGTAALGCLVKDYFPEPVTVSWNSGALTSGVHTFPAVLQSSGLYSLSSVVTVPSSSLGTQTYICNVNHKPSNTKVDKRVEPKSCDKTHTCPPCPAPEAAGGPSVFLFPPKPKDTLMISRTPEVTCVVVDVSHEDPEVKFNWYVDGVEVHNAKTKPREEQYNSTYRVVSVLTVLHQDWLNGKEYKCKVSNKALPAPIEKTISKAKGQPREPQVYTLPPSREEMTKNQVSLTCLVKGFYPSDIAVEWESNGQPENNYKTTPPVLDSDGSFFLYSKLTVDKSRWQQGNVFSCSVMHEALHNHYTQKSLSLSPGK
light: QSALTQPASVSGSPGQSITISCTGTSSDVGYINYVNWYQQHPGKAPKLMIYEVSNRPSGVSNRFSGSKSGNTASLTISGLQAEDEADYYCASWDWYDNVVFGGGTKLTVLGQPKAAPSVTLFPPSSEELQANKATLVCLISDFYPGAVTVAWKADSSPVKAGVETTTPSKQSNNKYAASSYLSLTPEQWKSHRSYSCQVTHEGSTVEKTVAPTECS
notes: Human IgG1f LALA; also called MOR022029; MOR20229

Kd [1]: 0.004 nM | Kd [2]: 0.004 nM | Kd [3]: 0.007 nM | IC50 [4]: 2.6 nM | IC50 [5]: 1.6 nM
B10: MOR021453 (antibody, human IgG1, lambda, L234A L235A)
heavy: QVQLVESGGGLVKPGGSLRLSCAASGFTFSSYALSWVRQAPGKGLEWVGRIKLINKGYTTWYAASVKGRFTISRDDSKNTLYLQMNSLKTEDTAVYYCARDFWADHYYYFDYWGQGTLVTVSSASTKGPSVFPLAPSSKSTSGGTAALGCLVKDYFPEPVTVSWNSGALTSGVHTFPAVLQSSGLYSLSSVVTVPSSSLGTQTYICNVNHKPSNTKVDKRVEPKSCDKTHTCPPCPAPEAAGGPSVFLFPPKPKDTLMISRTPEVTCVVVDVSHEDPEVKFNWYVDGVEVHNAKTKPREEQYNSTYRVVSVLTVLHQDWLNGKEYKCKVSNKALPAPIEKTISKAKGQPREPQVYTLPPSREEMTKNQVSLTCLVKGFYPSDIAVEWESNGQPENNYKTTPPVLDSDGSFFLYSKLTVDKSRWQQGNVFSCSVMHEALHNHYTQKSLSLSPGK
light: B9 light with Q1D, S2I
notes: also called MOR21453

Kd [1]: 0.0075 nM | Kd [2]: 0.01 nM | Kd [3]: 0.007 nM | IC50 [4]: 3.2 nM | IC50 [5]: 2.2 nM
B11: MOR021452 (antibody, human IgG1, lambda, L234A L235A)
heavy: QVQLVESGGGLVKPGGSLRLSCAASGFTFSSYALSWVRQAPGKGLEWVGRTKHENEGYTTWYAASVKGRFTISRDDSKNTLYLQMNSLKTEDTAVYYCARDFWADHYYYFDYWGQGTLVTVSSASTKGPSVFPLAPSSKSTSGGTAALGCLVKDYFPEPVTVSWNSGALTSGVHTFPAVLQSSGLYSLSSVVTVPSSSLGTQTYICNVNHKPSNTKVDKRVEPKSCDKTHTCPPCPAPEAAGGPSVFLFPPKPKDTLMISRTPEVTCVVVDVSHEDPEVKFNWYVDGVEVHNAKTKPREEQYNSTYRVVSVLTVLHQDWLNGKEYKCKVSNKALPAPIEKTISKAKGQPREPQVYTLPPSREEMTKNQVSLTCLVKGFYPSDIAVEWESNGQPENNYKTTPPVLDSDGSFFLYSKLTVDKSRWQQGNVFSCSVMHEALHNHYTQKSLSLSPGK
light: B9 light with Q1D, S2I
notes: also called MOR21452

Inhibition of ROS generation (IC50, nM) [6]: 2.5 nM | Kd [1]: 0.004 nM | Kd [3]: 0.007 nM | IC50 [4]: 6 nM | IC50 [7]: 0.5 nM
B12: MOR22030 (antibody, human IgG1, lambda, L234A L235A)
heavy: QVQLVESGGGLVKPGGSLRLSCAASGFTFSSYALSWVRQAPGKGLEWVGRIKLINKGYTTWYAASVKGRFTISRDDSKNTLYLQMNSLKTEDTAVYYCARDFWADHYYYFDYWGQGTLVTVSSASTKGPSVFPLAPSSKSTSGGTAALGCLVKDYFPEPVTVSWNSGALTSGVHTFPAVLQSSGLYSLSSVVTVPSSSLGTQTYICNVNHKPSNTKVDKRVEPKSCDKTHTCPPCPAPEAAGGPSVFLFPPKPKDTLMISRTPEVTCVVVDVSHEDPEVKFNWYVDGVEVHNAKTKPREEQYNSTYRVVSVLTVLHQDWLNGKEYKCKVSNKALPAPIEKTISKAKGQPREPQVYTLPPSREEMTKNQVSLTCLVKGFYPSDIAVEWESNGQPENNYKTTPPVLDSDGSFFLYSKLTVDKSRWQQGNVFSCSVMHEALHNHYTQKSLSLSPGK
light: B9 light
notes: Human IgG1f LALA; also called MOR022030; MOR20230
